Measurements: patent US20090325867A1, “RECEPTOR-SPECIFIC TUMOUR NECROSIS FACTOR-RELATED APOPTOSIS-INDUCING LIGAND (TRAIL) VARIANTS” (MEDICAL RESEARCH COUNCIL, priority 2005, published 2009)
Where a chain is given by its changes, count along the chain named. Names and notes keep the numbering of the source. “Also recorded” adds a separate entry of the source.

B1: TRAIL.R1-4: 6His TRAIL 95-281 with 199Val, 201Arg, 213Trp and 215Asp (protein)
chain: TSEETISTVQEKQQNISPLVRERGPQRVAAHITGTRGRSNTLSSPNSKNEKALGRKINSWESSRSGHSFLSNLHLRNGELVIHEKGFYYIYSQTYFRFQEEIKEVTRNDKQMVQYIYKWTDYPDPILLMKSARNSCWSKDAEYGLYSIYQGGIFELKENDRIFVSVTNEHLIDMDHEASFFGAFLVG
B2: TRAIL.R1-6: His-TRAIL (95-281) with 189Ala, 193Ser, 199Val, 201Arg, 213Trp, 215Asp; proposed TRAIL-R1 selective mutant of Kelley et al. (protein)
chain: B1 chain with Y95A, Q99S
modifications: biotin (site not stated) in the DISC analysis only; not biotinylated in the apoptosis assays
B3: TRAIL.R1-2: His-TRAIL (95-281) with 213Trp and 215Asp (Y213W;S215D) (protein)
chain: B1 chain with V105N, R107K
B4: TRAIL.R1-5a: His-TRAIL (95-281) with 189Ala, 199Val, 201Arg, 213Trp, 215Asp (protein)
chain: B1 chain with Y95A
B5: TRAIL.R1-1: His-TRAIL (95-281) with single substitution Tyr189Ala (protein)
chain: B1 chain with Y95A, V105N, R107K, W119Y, D121S
B6: TRAIL R191L: Arg191Leu single mutant of His-TRAIL (protein)
chain: B1 chain with R97L, V105N, R107K, W119Y, D121S
B7: TRAIL N199V: Asn199Val single mutant of His-TRAIL (protein)
chain: B1 chain with R107K, W119Y, D121S

What follows are molecules tested on Ramos cells (assay: Apoptosis by phosphatidylserine (PS) externalization in Ramos cells). Conditions: 4 h exposure, 500 ng ml^−, Mean ± SEM of at least three determinations.
Assay type: cell-based
Description: (§1) Cells were also exposed to HGS-ETR1 or HGSETR2 (1 μg ml^−1). C: Ramos or Jurkat cells were pre-incubated for 30 min either alone or with TRAIL-R1 blocking Ab or TRAIL-R2 neutralizing Ab (5 μg ml^−1). […] D: Ramos and Jurkat cells were exposed to wt TRAIL or TRAIL mutants as described above and processing of caspase-3 and -8 determined by Western blot analysis. The asterisk indicates a non-specific band. The lower panel of the blot for detection of the caspase-8 p18 subunit was exposed for twice as long as the upper panel. Apoptosis was assessed by phosphatidylserine externalization and results expressed as the Means±SEM of at least 3 separate determinations.
(§2) Ramos, an Epstein-Barr virus-negative Burkitt's lymphoma cell line, and Jurkat T cells (clone E6-1) were cultured as described (MacFarlane et al (2005 Cell Death and Differentiation vol 12 pages 773-782)). Blood samples were obtained from CLL patients, with patient consent and local ethical committee approval and CLL cells purified as described (MacFarlane et al (2002 Oncogene 21, 6809-6818). Cells were incubated for 16 h with depsipeptide (10 nM), provided by Dr. E. Sausville (NCI, USA). Cells were then cultured for a further 6 h with either HGSETR1 or HGS-ETR2, agonistic mAbs to TRAIL-R1 or -R2, respectively (Human Genome Sciences, Rockville, Md.), His-TRAIL-LE (a recombinant TRAIL with low endotoxin—Alexis Corporation, Nottingham, UK), His-TRAIL, a similar form of human recombinant TRAIL (MacFarlane et al (1997 J Biol Chem 272, 25417-25420)) but not further purified to reduce endotoxin levels or a mutant form of His-TRAIL as described (MacFarlane et al., 2005 ibid.). Cell lines were also pre-incubated for 30 min with a TRAIL-R1 blocking Ab and a TRAIL-R2 neutralizing Ab from Alexis and R&D systems, respectively, prior to exposure to TRAIL. Freshly isolated cells from patients with MCL were isolated, purified and incubated with different forms of TRAIL as described above for CLL cells. Samples were either analyzed immediately for apoptosis or stored at −80° C. for subsequent Western blotting. Other methods and reagents were as described (Inoue (2004 Cell Death Differ 11 Suppl 2, S193-206); MacFarlane et al., 2005 ibid).
(§3) Apoptosis was quantified by phosphatidylserine (PS) externalization in the presence of propidium iodide as described (MacFarlane et al., 2002 ibid.). Samples for Western blot analysis were prepared and caspase processing detected as described (Inoue et al., 2004 ibid.; MacFarlane et al., 2005 ibid.).
Ramos and Jurkat T cells (clone E6-1) were cultured as described (MacFarlane et al, 2005 ibid.). The breast tumour cell line, MCF-7 (clone F43) was cultured as described previously (MacFarlane et al., 2000 J. Cell Biol. 148, 1239-1254). Cells were cultured for either 4 h (Ramos and Jurkat) or 6 h (MCF-7) with His-TRAIL (MacFarlane et al, 1997 J Biol Chem 272, 25417-25420), HGS-ETR1 or HGS-ETR2 (Human Genome Sciences), or a mutant form of His-TRAIL (MacFarlane et al, 2005 ibid.). Samples were analyzed for apoptosis, Western blotting, or TRAIL DISC activation as described (MacFarlane et al, 2005 ibid.; MacFarlane et al. 2002 Oncogene 21, 6809-6818). Mutants of His-TRAIL (residues 95-281) were generated using the Quik-Change site-directed mutagenesis kit (Stratagene, Calif.), confirmed by DNA sequencing, expressed in E. coli and purified as described (MacFarlane et al, 1997 ibid.). For siRNA targeting of TRAIL-R1/-R2, MCF-7 cells were seeded into six-well plates immediately prior to effectene-mediated RNAi transfection with either a negative control siRNA (30 nM, Ambion, #4611), or preannealed siRNA oligonucleotides for TRAIL-R1 or TRAIL-R2 (30 nM, Ambion), with the sequence and validity described (Ren et al, 2004 Mol. Biol. Cell vol 15 pp 5064-5074). After 40 h of transfection the cells were collected and total TRAIL-R1 or TRAIL-R2 levels assessed. […]

**Q.** How did the “% PS+ cells, Ramos” value turn out when B1 was run?
**A.** The value was 43.5 ± 2.5%.

**Q.** For B2, which “% PS+ cells, Ramos” value is on record?
**A.** Its value is 13.7 ± 1.3%.

**Q.** Which “% PS+ cells, Ramos” value does the source give for B3 here?
**A.** Its value is 42.2 ± 3.1%.

**Q.** Which “% PS+ cells, Ramos” value does the source give for B4 here?
**A.** The value was 18.9 ± 0.7%.

**Q.** With B5 as the molecule, how does the “% PS+ cells, Ramos” value read?
**A.** Its value is 30.6 ± 2.9%.

Same assay, conditions: PS externalization, compared with wt TRAIL

**Q.** Which “ability to induce apoptosis in Ramos cells (in words)” value (“ability … in Ramos cells (in words)” for short) does the source give for B1 here?
**A.** The value was “retained the activity of wt TRAIL”.

**Q.** B2 was tested. Which “ability … in Ramos cells (in words)” value did it give?
**A.** The value was “largely inactive”.

**Q.** Which “ability … in Ramos cells (in words)” value does the source give for B3 here?
**A.** The value was “very similar activity to wt TRAIL”.

**Q.** How did the “ability … in Ramos cells (in words)” value turn out when B4 was run?
**A.** Its value is “markedly diminished activity”.

**Q.** Which “ability … in Ramos cells (in words)” value does the source give for B5 here?
**A.** Its value is “decreased ability to induce apoptosis”.

What follows are molecules tested on Jurkat cells (assay: Apoptosis by phosphatidylserine (PS) externalization in Jurkat cells). Conditions: 4 h exposure, 500 ng ml^−, Mean ± SEM of at least three determinations.
Assay type: cell-based
Description: as §1, with “determinations. […]” for “determinations.”
as §3
Ramos and Jurkat T cells (clone E6-1) were cultured as described (MacFarlane et al, 2005 ibid.). The breast tumour cell line, MCF-7 (clone F43) was cultured as described previously (MacFarlane et al., 2000 J. Cell Biol. 148, 1239-1254). Cells were cultured for either 4 h (Ramos and Jurkat) or 6 h (MCF-7) with His-TRAIL (MacFarlane et al, 1997 J Biol Chem 272, 25417-25420), HGS-ETR1 or HGS-ETR2 (Human Genome Sciences), or a mutant form of His-TRAIL (MacFarlane et al, 2005 ibid.). Samples were analyzed for apoptosis, Western blotting, or TRAIL DISC activation as described (MacFarlane et al, 2005 ibid.; MacFarlane et al. 2002 Oncogene 21, 6809-6818). Mutants of His-TRAIL (residues 95-281) were generated using the Quik-Change site-directed mutagenesis kit (Stratagene, Calif.), confirmed by DNA sequencing, expressed in E. coli and purified as described (MacFarlane et al, 1997 ibid.). For siRNA targeting of TRAIL-R1/-R2, MCF-7 cells were seeded into six-well plates immediately prior to effectene-mediated RNAi transfection with either a negative control siRNA (30 nM, Ambion, #4611), or preannealed siRNA oligonucleotides for TRAIL-R1 or TRAIL-R2 (30 nM, Ambion), with the sequence and validity described (Ren et al, 2004 Mol. Biol. Cell vol 15 pp 5064-5074). After 40 h of transfection the cells were collected and total TRAIL-R1 or TRAIL-R2 levels assessed. Where indicated, RNAi transfected MCF-7 cells were either left untreated or exposed to wt-TRAIL and apoptosis assessed by the extent of Bax activation, determined using the conformation specific Bax MAb, clone 3 (Dewson et al, 2003 Oncogene vol 22 pp 2643-54).

**Q.** With B1 as the molecule, how does the “% PS+ cells, Jurkat” value read?
**A.** Its value is 25.0 ± 2.6%.

**Q.** Which “% PS+ cells, Jurkat” value does the source give for B2 here?
**A.** Its value is 6.4 ± 0.8%.

**Q.** How did the “% PS+ cells, Jurkat” value turn out when B3 was run?
**A.** The value was 46.6 ± 3.1%.

**Q.** Which “% PS+ cells, Jurkat” value does the source give for B4 here?
**A.** The value was 6.6 ± 0.4%.

**Q.** B5 was tested. Which “% PS+ cells, Jurkat” value did it give?
**A.** The value was 24.9 ± 2.2%.

Same assay, conditions: PS externalization, compared with wt TRAIL

**Q.** Which “ability to induce apoptosis in Jurkat cells (in words)” value (from here on “ability … in Jurkat cells (in words)”) does the source give for B1 here?
**A.** The value was “decreased activity; also recorded: lost some activity”.

**Q.** How did the “ability … in Jurkat cells (in words)” value turn out when B2 was run?
**A.** The value was “inactive”.

**Q.** Which “ability … in Jurkat cells (in words)” value does the source give for B3 here?
**A.** Its value is “very similar activity to wt TRAIL”.

**Q.** Which “ability … in Jurkat cells (in words)” value does the source give for B4 here?
**A.** Its value is “complete inactivity”.

**Q.** With B5 as the molecule, how does the “ability … in Jurkat cells (in words)” value read?
**A.** Its value is “decreased ability to induce apoptosis”.

What follows are molecules tested on TRAIL DISC in Ramos cells (assay: DISC analysis with biotinylated TRAIL in Ramos cells). Conditions: biotinylated ligand 500 ng ml^−1, 30 min.
Assay type: cell-based
Description: (§4) After exposure of the cells for 30 min, DISC complexes were isolated and analyzed for the indicated proteins by Western blotting. To provide an unstimulated receptor control (u/s), biotinylated wt or mutant TRAIL was added to lysate from untreated cells. C: Freshly isolated cells from patients with CLL were incubated for 16 h either alone or in the presence of depsipeptide (10 nM). […] The different symbols used indicate data from six individual patients and the solid line indicates the Mean.
(§5) Ramos or Jurkat cells (5×10^7 cells per treatment) were exposed to biotin-tagged recombinant His-TRAIL (biotinylated TRAIL) or one of its mutant forms (500 ng ml^−1) for 30 min and then DISC formation assessed as described previously (MacFarlane et al., 2002 ibid.).

**Q.** Which “DISC formation: receptor bound, FADD and caspase-8 recruitment” value does the source give for B2 here?
**A.** Its value is “failed to recruit FADD or caspase-8 to the DISC”.

What follows are molecules tested on TRAIL DISC in Jurkat cells (assay: DISC analysis with biotinylated TRAIL in Jurkat cells). Conditions: biotinylated ligand 500 ng ml^−1, 30 min.
Assay type: cell-based
Description: as §4, §5

**Q.** B2 was tested. Which “DISC formation: receptor bound, FADD and caspase-8 recruitment” value did it give?
**A.** Its value is “bound neither TRAIL-R1 nor -R2”.

What follows are molecules tested against T1, TRAIL-R1 (DR4) (Homo sapiens, UniProt O00220) (assay: TRAIL-R1 selective apoptotic signalling (Ramos versus Jurkat cells)). Conditions: from apoptosis in Ramos (TRAIL-R1) and Jurkat (TRAIL-R2) cells.
T1 construct: Ramos and Jurkat cells, which signal predominantly through TRAIL-R1 and TRAIL-R2, respectively; endogenous in cells; host or cells: Ramos cells (Jurkat cells as TRAIL-R2 comparison)
Assay type: cell-based
Source text: Another test involves the assay of the effect in R1- (DR4-) only cells. This is the preferred test for DR4 selectivity as discussed herein. Preferably the ligand is applied to an R1-only signalling cell. Preferably the cell is a Ramos cell. Preferably the read-out is functional activity, preferably death-inducing activity (apoptosis). This is crucial to the test—mere binding is not as robust an indicator as functional induction of death. Thus, preferably a DR4 selective ligand according to the present invention induces death in a DR4 only signalling cell, such as a Ramos cell.
as §2, §3
Referring to FIG. 4: Ramos cells (A) and Jurkat cells (B) were cultured with increasing concentrations of Arg191Leu or Asn199Val single mutants of His-TRAIL ([…]) or His-TRAIL (500 ng/ml), ETR1 or ETR2 (1000 ng/ml) for 4 h. Apoptosis was quantified by measuring the % PS+ cells and results shown in FIG. 4 are the Mean±SEM of three independent experiments. Thus the biological importance TRAIL residues R191 and N199 in TRAIL-R1 selectivity is shown.

**Q.** How did the “receptor selectivity of apoptotic activity (in words)” value (shortened to “receptor selectivity”) turn out when B1 was run?
**A.** Its value is “good R1 selective activity; also recorded: a degree of selectivity for TRAIL-R1”.

**Q.** With B3 as the molecule, how does the “receptor selectivity” value read?
**A.** Its value is “neither specific for TRAIL-R1 nor R2; also recorded: did not show any differential effects”.

**Q.** With B6 as the molecule, how does the “receptor selectivity” value read?
**A.** The value was “TRAIL-R1 selective”.

**Q.** B7 was tested. Which “receptor selectivity” value did it give?
**A.** Its value is “TRAIL-R1 selective”.
